Source: patent publication US20250121076A1, “POLYPEPTIDE DRUG CONJUGATE HAVING NOVEL STRUCTURE AND APPLICATION THEREOF” (MEDSHINE DISCOVERY INC., priority 2021, published 2025)
Structures can show the parent of a compound that is named as a salt. Starred links: 1 amine or outer side, 2 acyl side, 3 side chain; linkers in the order of their positions; H or OH if unused. Positions of bridges follow the written chain, without caps; N, C: chain ends. Non-standard residues stand in square brackets, D forms with d. Residues, ends and D or L forms follow the SMILES beside them. Chains are numbered I, II in the order given. *: point of attachment. TATA = O=C(CC[*:1])N1CN(C(=O)CC[*:2])CN(C(=O)CC[*:3])C1; Dolaproine = CO[C@@H]([C@@H]1CCCN1)[C@@H](C)C(=O)O; Dil = CC[C@H](C)[C@H](NC)[C@@H](CC(=O)O)OC; X2 = O=C(CCCC(=O)[*:2])NCCC(=O)[*:1]; PABC = O=C(OCc1ccc(N[*:1])cc1)[*:2]; X1 = C[C@@H](N*)[C@@H](O)c1ccccc1; Hyp = O=C(O)[C@@H]1C[C@@H](O)CN1; hArg = N=C(N)NCCCC[C@H](N)C(=O)O; Cit = NC(=O)NCCC[C@H](N)C(=O)O; Pen = CC(C)(S)[C@H](N)C(=O)O; NMeV = CN[C@H](C(=O)O)C(C)C; Sar = CNCC(=O)O

Tests used:
[1] = Pharmacokinetic analysis in Cynomolgus macaque plasma; assay type: in vivo, Cynomolgus macaques; details: cynomolgus monkey, in vivo, Cynomolgus macaques, single IV 1 mg/kg, plasma
Method: To test the pharmacokinetics of the compounds of the present invention in Cynomolgus macaques.
The pharmacokinetic characteristics of the compound after intravenous injection and oral administration were tested in Cynomolgus macaques according to a standard protocol. The compound of the present invention was formulated into a clear solution using 50 mM acetate buffer (pH=5) in 10% sucrose as a vehicle. Two Cynomolgus macaques were given a single intravenous injection of 1 mg/kg of the compound to be tested. Whole blood was collected at time points of 0.083, 0.25, 0.5, 1, 2, 4, 8, and 24 hours after administration to get plasma. The concentration of the compound to be tested and the concentration of its potential metabolite MMAE were analyzed by the LC-MS/MS method, and the pharmacokinetic parameters were calculated by Phoenix WinNonlin software.

Stability in plasma = assay type: in vitro ADME, Cynomolgus macaques; details: Cynomolgus macaque plasma, 2 μM, 37° C., up to 240 min
Method: To test the stability of the compounds of the present invention in plasma from rats, Cynomolgus macaques, and humans.
The corresponding incubation plates, including T0, T10, T30, T60, T120, and T240 incubation plates, were added with a 2 μL working solution of the compound to be tested (100 μM). Three parallel wells were prepared for each sample. Then, 98 μL of blank plasma from SD rats, Cynomolgus macaques, and humans was added to the corresponding incubation plates to which the working solution had been added. All samples were incubated in a 37° C. water bath. […] At the end of each incubation time point, the corresponding incubation plate was removed, added with stop buffer, precipitated, and centrifuged for 20 minutes. Then, 150 μL of the supernatant was analyzed by the LC-MS/MS method. The concentration of the compound to be tested in the sample was semi-quantitatively determined by the liquid chromatography-tandem mass spectrometry (LC-MS/MS) method.

Stability in whole blood = assay type: in vitro ADME, Cynomolgus macaques; details: Cynomolgus macaque whole blood, 2 μM, 37° C.
Method: To test the stability of the compounds of the present invention in whole blood from SD rats and Cynomolgus macaques.
The corresponding incubation plates, including T0, T10, T30, T60, T120, and T240 incubation plates, were added with a 2 μL working solution of the compound to be tested (100 μM). Three parallel wells were prepared for each sample. Then, 98 μL of blank whole blood from SD rats and Cynomolgus macaques was added to the corresponding incubation plates to which the working solution had been added. All samples were incubated in a 37° C. water bath. […] At the end of each incubation time point, the corresponding incubation plate was removed, added with stop buffer, precipitated, and centrifuged for 20 minutes. Then, 100 μL of the supernatant was diluted with 300 μL of ultrapure water, mixed uniformly, and then analyzed by the LC-MS/MS method. The concentration of the compound to be tested in the sample was semi-quantitatively determined by the liquid chromatography-tandem mass spectrometry (LC-MS/MS) method.

[2] = Metabolic stability in hepatocytes; assay type: in vitro ADME, Humans; details: human hepatocytes, 1 μM, 0.5×10^6 cells/mL
Method: To investigate the metabolic stability of the compounds of the present invention in hepatocytes from Cynomolgus macaques and humans.
Incubations were performed in 96-well plates using an external extraction method. Several 96-well sample precipitation plates, designated T0, T15, T30, T60, T90, T0-MC, T90-MC, and blank matrix, were prepared, respectively. The recovery culture medium and incubation culture medium were removed in advance and placed in a 37° C. water bath for preheating. Frozen hepatocytes from Cynomolgus macaques and humans were removed from a liquid nitrogen tank, recovered, and diluted to 0.51×10^6 cells/mL with the incubation culture medium. […]
At the end of the incubation at the corresponding time point, the incubation plates were removed, from which 25 μL of a compound mixture with the cells was removed and added to sample plates containing 125 μL of stop buffer. […] All samples were mixed uniformly and then analyzed by the LC-MS/MS method.
The concentration of the compound of the present invention in the sample was semi-quantitatively determined by the liquid chromatography-tandem mass spectrometry (LC-MS/MS) method without a standard curve and quality control sample. […]

## CC[C@H](C)[C@@H]([C@@H](CC(=O)N1CCC[C@H]1[C@H](OC)[C@@H](C)C(=O)N[C@H](C)[C@@H](O)c1ccccc1)OC)N(C)C(=O)[C@@H](NC(=O)[C@H](C(C)C)N(C)C(=O)OCc1ccc(NC(=O)[C@H](CCCNC(N)=O)NC(=O)[C@@H](NC(=O)CCCC(=O)NCCC(=O)N(C)CC(=O)N(C)CC(=O)N(C)CC(=O)N(C)CC(=O)N(C)CC(=O)N(C)CC(=O)N(C)CC(=O)N(C)CC(=O)N(C)CC(=O)N(C)CC(=O)N[C@H]2CCCCNC(=O)C[C@@H](C(=O)N[C@H]3CSCCC(=O)N4CN5CN(C4)C(=O)CCSC(C)(C)[C@@H](C(N)=O)NC(=O)[C@H](CCCCNC(=N)N)NC(=O)[C@H](Cc4c[nH]c6ccccc46)NC(=O)[C@@H](CC(=O)O)NC(=O)[C@@H]4CCCN4C(=O)[C@H](Cc4c[nH]cn4)NC(=O)[C@H](CC(C)C)NC(=O)[C@H](CSCCC5=O)NC(=O)[C@H](CC(C)C)NC(=O)[C@@H]4CCCN4C(=O)[C@H](CC(N)=O)NC(=O)[C@H](C(C)C)NC(=O)[C@H](CC(C)C)NC(=O)[C@@H]4C[C@@H](O)CN4C3=O)NC(=O)[C@H](CCCCNC(=N)N)NC2=O)C(C)C)cc1)C(C)C [Acetate salt of PDC_8] (I: [Sar][Sar][Sar][Sar][Sar][Sar][Sar][Sar][Sar][Sar]K[hArg]DC[Hyp]LVNPLCLHP[dD]W[hArg][Pen]-NH2 / II: V[Cit][PABC][NMeV]V[Dil][Dolaproine]-X1; lactam I:11-I:13; linker I:14-I:21-I:28 via TATA; linker I:N-II:N via X2)
[1]
  AUC(0-t): 651 nM·h
  C0: 2.47 µM
  clearance: 0.343 L/h/kg
  half-life: 0.31 h
[1]; read-out: Vdss
  Vd: 0.12 L/kg
Stability in plasma
  half-life: > 9.63 h
Stability in whole blood
  half-life: > 9.63 h
[2]
  half-life: > 3.61 h
[2]; read-out: CLint (liver)
  CLint scaled: < 1.07 L/h/kg
